According to patent US20250002588A1 (DIAGONAL THERAPEUTICS, published 2025):

biological target: ALK-1/BMPR-2 receptor pair of the PathHunter U2Os dimerization cells (DiscoverX 93-0962C3) (UniProt P37023 22-503; Q13873 27-1038); experiment: cell-based or functional assay
Sequence (P37023 22-503, chain 1 of 2): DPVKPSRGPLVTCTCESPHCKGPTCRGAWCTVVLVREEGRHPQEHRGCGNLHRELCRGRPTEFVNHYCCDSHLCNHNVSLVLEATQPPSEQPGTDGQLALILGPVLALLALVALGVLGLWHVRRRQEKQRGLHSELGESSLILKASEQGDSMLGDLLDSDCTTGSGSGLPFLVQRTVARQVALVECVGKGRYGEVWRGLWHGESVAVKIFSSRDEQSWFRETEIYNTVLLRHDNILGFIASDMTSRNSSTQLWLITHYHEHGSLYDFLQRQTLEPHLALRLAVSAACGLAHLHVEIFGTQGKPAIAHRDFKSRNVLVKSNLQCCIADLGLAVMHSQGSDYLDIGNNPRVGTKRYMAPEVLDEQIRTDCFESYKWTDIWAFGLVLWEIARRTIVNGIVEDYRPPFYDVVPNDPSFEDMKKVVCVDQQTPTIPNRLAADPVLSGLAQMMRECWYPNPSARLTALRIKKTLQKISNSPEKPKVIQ
Sequence (Q13873 27-1038, chain 2 of 2): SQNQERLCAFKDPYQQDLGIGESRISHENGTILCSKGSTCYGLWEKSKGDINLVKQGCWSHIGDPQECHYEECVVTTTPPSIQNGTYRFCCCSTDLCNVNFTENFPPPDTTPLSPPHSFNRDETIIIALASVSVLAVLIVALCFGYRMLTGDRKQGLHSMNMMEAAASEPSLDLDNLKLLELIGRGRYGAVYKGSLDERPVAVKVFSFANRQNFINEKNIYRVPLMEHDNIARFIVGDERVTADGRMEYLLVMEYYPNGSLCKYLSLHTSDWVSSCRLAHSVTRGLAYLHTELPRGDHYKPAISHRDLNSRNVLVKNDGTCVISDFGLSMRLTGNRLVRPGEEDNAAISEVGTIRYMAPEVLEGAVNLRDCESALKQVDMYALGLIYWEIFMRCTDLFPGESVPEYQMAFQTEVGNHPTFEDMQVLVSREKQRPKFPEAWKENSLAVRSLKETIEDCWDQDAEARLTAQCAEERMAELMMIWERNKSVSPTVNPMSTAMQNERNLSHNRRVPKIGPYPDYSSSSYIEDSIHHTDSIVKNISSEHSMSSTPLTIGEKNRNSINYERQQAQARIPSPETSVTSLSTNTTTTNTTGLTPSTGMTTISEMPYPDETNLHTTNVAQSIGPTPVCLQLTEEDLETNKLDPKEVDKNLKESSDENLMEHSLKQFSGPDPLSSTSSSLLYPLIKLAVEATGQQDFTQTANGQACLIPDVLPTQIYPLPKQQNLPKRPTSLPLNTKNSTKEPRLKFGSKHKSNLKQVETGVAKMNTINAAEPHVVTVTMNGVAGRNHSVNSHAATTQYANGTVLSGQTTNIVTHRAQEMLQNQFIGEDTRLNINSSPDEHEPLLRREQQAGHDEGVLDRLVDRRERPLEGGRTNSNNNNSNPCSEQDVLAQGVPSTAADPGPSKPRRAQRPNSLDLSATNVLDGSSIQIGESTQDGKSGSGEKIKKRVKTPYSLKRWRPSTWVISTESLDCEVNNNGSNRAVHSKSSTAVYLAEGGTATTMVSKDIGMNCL

Binder	% Emax BMP9	EC50	Emax (RLU)
DGL275 (bispecific antibody) chain 1: not shown chain 2: EVQLLESGGGLVQPGGSLRLSCAASGFTFSDYYMTWIRQAPGKGLEWVSSISGGSTYYADSRKGRFTISRDNSENTLYLQMNSLRAEDTAVYYCARDFGVAGWFGQYGMDVWGQGTLVTVSSGGGGSGGGGSGGGGSQSVLTQPPSASGTPGQRVTISCTGSSSNIGAGYDVHWYQQLPGTAPKLLIYRSNQRPSGVPDRFSGSKSGTSASLAISGLRSEDEADYYCSSYAGNYNLVFGGGTKLTVLDKTHTCPPCPAPEAAGAPSVFLFPPKPKDTLMISRTPEVTCVVVDVSHEDPEVKFNWYVDGVEVHNAKTKPREEQYNSTYRVVSVLTVLHQDWLNGKEYKCKVSNKALPAPIEKTISKAKGQPREPQVCTLPPSRDELTKNQVSLSCAVKGFYPSDIAVEWESNGQPENNYKTTPPVLDSDGSFFLVSKLTVDKSRWQQGNVFSCSVMHEALHNHYTQKSLSLSPGWSHPQFEK	48%	0.9 nM	1.28e+06 RLU
DGL276 (bispecific antibody) chain 1: EVQLLESGGGLVQPGGSLRLSCAASGFTFSSYAMSWVRQAPGKGLEWVANINQDGSEKNYVDSMRGRFTISRDNSKNTLYLQMNSLRAEDTAVYYCAREFDYWGQGTLVTVTSSGGGGSGGGGSGGGGSQSVLAQPPSASGTPGQRVTISCSGSSSNIGSNYVYWYQQLPGTAPKLLIYGNNKRPSGVPDRFSGSKSGTSASLAISGLRSEDEADYYCAAWDDSLNGRVFGGGTKLTVLCPPCPAPEAAGAPSVFLFPPKPKDTLMISRTPEVTCVVVDVSHEDPEVKFNWYVDGVEVHNAKTKPREEQYNSTYRVVSVLTVLHQDWLNGKEYKCKVSNKALPAPIEKTISKAKGQPREPQVYTLPPCRDELTKNQVSLWCLVKGFYPSDIAVEWESNGQPENNYKTTPPVLDSDGSFFLYSKLTVDKSRWQQGNVFSCSVMHEALHNHYTQKSLSLSPGEPEA chain 2: EVQLLESGGGLVQPGGSLRLSCAASGFTFSDYYMTWIRQAPGKGLEWVSSISGGSTYYADSRKGRFTISRDNSENTLYLQMNSLRAEDTAVYYCARDFGVAGWFGQYGMDVWGQGTLVTVSSGGGGSGGGGSGGGGSQSVLTQPPSASGTPGQRVTISCTGSSSNIGAGYDVHWYQQLPGTAPKLLIYRSNQRPSGVPDRFSGSKSGTSASLAISGLRSEDEADYYCSSYAGNYNLVFGGGTKLTVLCPPCPAPEAAGAPSVFLFPPKPKDTLMISRTPEVTCVVVDVSHEDPEVKFNWYVDGVEVHNAKTKPREEQYNSTYRVVSVLTVLHQDWLNGKEYKCKVSNKALPAPIEKTISKAKGQPREPQVCTLPPSRDELTKNQVSLSCAVKGFYPSDIAVEWESNGQPENNYKTTPPVLDSDGSFFLVSKLTVDKSRWQQGNVFSCSVMHEALHNHYTQKSLSLSPGWSHPQFEK	43%	1.2 nM	1.14e+06 RLU
DGL274 (bispecific antibody) chain 1: EVQLLESGGGLVQPGGSLRLSCAASGFTFSIYAMSWVRQAPGKGLEWVSAISGSGGSTYYADSVKGRFTISRDNSKNTLYLQMNSLRAEDTAVYYCARDFDYWGQGTLVTVTSSGGGGSGGGGSGGGGSQSVLTQPPSASGTPGQRVTISCSGSSSNIGSNYVYWYQQLPGTAPKLLIYGNINRPSGVPDRFSGSKSGTSASLAISGLRSEDEADYYCAAWDDSLNGRVFGGGTKLTVLPLAPCPPCPAPEAAGAPSVFLFPPKPKDTLMISRTPEVTCVVVDVSHEDPEVKFNWYVDGVEVHNAKTKPREEQYNSTYRVVSVLTVLHQDWLNGKEYKCKVSNKALPAPIEKTISKAKGQPREPQVYTLPPCRDELTKNQVSLWCLVKGFYPSDIAVEWESNGQPENNYKTTPPVLDSDGSFFLYSKLTVDKSRWQQGNVFSCSVMHEALHNHYTQKSLSLSPGEPEA chain 2: EVQLLESGGGLVQPGGSLRLSCAASGFTFSNAWMNWVRQAPGKGLEWVSSISSSSSYIYYADSVKGRFTISRDNSKNTLYLQMNSLRAEDTAVYYCARAVAAGGMFWGLDQWGQGTLVTVTSSGGGGSGGGGSGGGGSQSVLTQPPSASGTPGQRVTISCSGSRSNIGSNSVHWYQQLPGTAPKLLIYGNSNRPSGVPDRFSGSKSGTSASLAISGLRSEDEADYYCQSYDSSLNDHVVFGGGTKLTVLPLAPCPPCPAPEAAGAPSVFLFPPKPKDTLMISRTPEVTCVVVDVSHEDPEVKFNWYVDGVEVHNAKTKPREEQYNSTYRVVSVLTVLHQDWLNGKEYKCKVSNKALPAPIEKTISKAKGQPREPQVCTLPPSRDELTKNQVSLSCAVKGFYPSDIAVEWESNGQPENNYKTTPPVLDSDGSFFLVSKLTVDKSRWQQGNVFSCSVMHEALHNHYTQKSLSLSPGWSHPQFEK	47%	1.7 nM	1.25e+06 RLU

More lines, now with the values ahead:

% Emax BMP9	EC50	Emax (RLU)	Binder
26%	14 nM	684000 RLU	DGL278 (bispecific antibody, human IgG1, lambda) heavy: not shown light: not shown EVQLLESGGGLVQPGGSLRLSCAASGFTFSIYAMSWVRQAPGKGLEWVSAISGSGGSTYYADSVKGRFTISRDNSKNTLYLQMNSLRAEDTAVYYCARDFDYWGQGTLVTVTSSGGGGSGGGGSGGGGSQSVLTQPPSASGTPGQRVTISCSGSSSNIGSNYVYWYQQLPGTAPKLLIYGNINRPSGVPDRFSGSKSGTSASLAISGLRSEDEADYYCAAWDDSLNGRVFGGGTKLTVLDKTHTCPPCPAPEAAGAPSVFLFPPKPKDTLMISRTPEVTCVVVDVSHEDPEVKFNWYVDGVEVHNAKTKPREEQYNSTYRVVSVLTVLHQDWLNGKEYKCKVSNKALPAPIEKTISKAKGQPREPQVCTLPPSRDELTKNQVSLSCAVKGFYPSDIAVEWESNGQPENNYKTTPPVLDSDGSFFLVSKLTVDKSRWQQGNVFSCSVMHEALHNHYTQKSLSLSPGKWSHPQFEK
51%	1 nM	1.35e+06 RLU	DGL277 (bispecific antibody) chain 1: EVQLLESGGGLVQPGGSLRLSCAASGFTFSSYAMSWVRQAPGKGLEWVANINQDGSEKNYVDSMRGRFTISRDNSKNTLYLQMNSLRAEDTAVYYCAREFDYWGQGTLVTVTSSGGGGSGGGGSGGGGSQSVLAQPPSASGTPGQRVTISCSGSSSNIGSNYVYWYQQLPGTAPKLLIYGNNKRPSGVPDRFSGSKSGTSASLAISGLRSEDEADYYCAAWDDSLNGRVFGGGTKLTVLPLAPCPPCPAPEAAGAPSVFLFPPKPKDTLMISRTPEVTCVVVDVSHEDPEVKFNWYVDGVEVHNAKTKPREEQYNSTYRVVSVLTVLHQDWLNGKEYKCKVSNKALPAPIEKTISKAKGQPREPQVYTLPPCRDELTKNQVSLWCLVKGFYPSDIAVEWESNGQPENNYKTTPPVLDSDGSFFLYSKLTVDKSRWQQGNVFSCSVMHEALHNHYTQKSLSLSPGEPEA chain 2: EVQLLESGGGLVQPGGSLRLSCAASGFTFSDYYMTWIRQAPGKGLEWVSSISGGSTYYADSRKGRFTISRDNSENTLYLQMNSLRAEDTAVYYCARDFGVAGWFGQYGMDVWGQGTLVTVSSGGGGSGGGGSGGGGSQSVLTQPPSASGTPGQRVTISCTGSSSNIGAGYDVHWYQQLPGTAPKLLIYRSNQRPSGVPDRFSGSKSGTSASLAISGLRSEDEADYYCSSYAGNYNLVFGGGTKLTVLPLAPCPPCPAPEAAGAPSVFLFPPKPKDTLMISRTPEVTCVVVDVSHEDPEVKFNWYVDGVEVHNAKTKPREEQYNSTYRVVSVLTVLHQDWLNGKEYKCKVSNKALPAPIEKTISKAKGQPREPQVCTLPPSRDELTKNQVSLSCAVKGFYPSDIAVEWESNGQPENNYKTTPPVLDSDGSFFLVSKLTVDKSRWQQGNVFSCSVMHEALHNHYTQKSLSLSPGWSHPQFEK
42%	330 nM	1.11e+06 RLU	DGL281 (bispecific antibody, human IgG1, lambda) heavy: not shown light: not shown EVQLLESGGGLVQPGGSLRLSCAASGFTFSDYYMTWIRQAPGKGLEWVSSISGGSTYYADSRKGRFTISRDNSENTLYLQMNSLRAEDTAVYYCARDFGVAGWFGQYGMDVWGQGTLVTVSSGGGGSGGGGSGGGGSQSVLTQPPSASGTPGQRVTISCTGSSSNIGAGYDVHWYQQLPGTAPKLLIYRSNQRPSGVPDRFSGSKSGTSASLAISGLRSEDEADYYCSSYAGNYNLVFGGGTKLTVLDKTHTCPPCPAPEAAGAPSVFLFPPKPKDTLMISRTPEVTCVVVDVSHEDPEVKFNWYVDGVEVHNAKTKPREEQYNSTYRVVSVLTVLHQDWLNGKEYKCKVSNKALPAPIEKTISKAKGQPREPQVCTLPPSRDELTKNQVSLSCAVKGFYPSDIAVEWESNGQPENNYKTTPPVLDSDGSFFLVSKLTVDKSRWQQGNVFSCSVMHEALHNHYTQKSLSLSPGKWSHPQFEK
36%	170 nM	954000 RLU	DGL282 (bispecific antibody, human IgG1, lambda) heavy 1: EVQLLESGGGLVQPGGSLRLSCAASGFTFSIYAMSWVRQAPGKGLEWVSAISGSGGSTYYADSVKGRFTISRDNSKNTLYLQMNSLRAEDTAVYYCARDFDYWGQGTLVTVTSSASVAAPSVFIFPPSDEQLKSGTASVVCLLNNFYPREAKVQWKVDNALQSGNSQESVTEQDSKDSTYSLSSTLTLSKADYEKHKVYACEVTHQGLSSPVTKSFNRGECDKTHTCPPCPAPEAAGAPSVFLFPPKPKDTLMISRTPEVTCVVVDVSHEDPEVKFNWYVDGVEVHNAKTKPREEQYNSTYRVVSVLTVLHQDWLNGKEYKCKVSNKALPAPIEKTISKAKGQPREPQVCTLPPSRDELTKNQVSLSCAVKGFYPSDIAVEWESNGQPENNYKTTPPVLDSDGSFFLVSKLTVDKSRWQQGNVFSCSVMHEALHNHYTQKSLSLSPGWSHPQFEK light 1: QSVLTQPPSASGTPGQRVTISCSGSSSNIGSNYVYWYQQLPGTAPKLLIYGNINRPSGVPDRFSGSKSGTSASLAISGLRSEDEADYYCAAWDDSLNGRVFGGGTKLTVLSSASTKGPSVFPLAPSSKSTSGGTAALGCLVKDYFPEPVTVSWNSGALTSGVHTFPAVLQSSGLYSLSSVVTVPSSSLGTQTYICNVNHKPSNTKVDKKVEPKSC heavy 2: not shown light 2: not shown
33%	28 nM	879000 RLU	DGL283 (bispecific antibody, human IgG1, lambda) heavy 1: EVQLLESGGGLVQPGGSLRLSCAASGFTFSSYAMSWVRQAPGKGLEWVANINQDGSEKNYVDSMRGRFTISRDNSKNTLYLQMNSLRAEDTAVYYCAREFDYWGQGTLVTVTSSASVAAPSVFIFPPSDEQLKSGTASVVCLLNNFYPREAKVQWKVDNALQSGNSQESVTEQDSKDSTYSLSSTLTLSKADYEKHKVYACEVTHQGLSSPVTKSFNRGECDKTHTCPPCPAPEAAGAPSVFLFPPKPKDTLMISRTPEVTCVVVDVSHEDPEVKFNWYVDGVEVHNAKTKPREEQYNSTYRVVSVLTVLHQDWLNGKEYKCKVSNKALPAPIEKTISKAKGQPREPQVCTLPPSRDELTKNQVSLSCAVKGFYPSDIAVEWESNGQPENNYKTTPPVLDSDGSFFLVSKLTVDKSRWQQGNVFSCSVMHEALHNHYTQKSLSLSPGWSHPQFEK light 1: QSVLAQPPSASGTPGQRVTISCSGSSSNIGSNYVYWYQQLPGTAPKLLIYGNNKRPSGVPDRFSGSKSGTSASLAISGLRSEDEADYYCAAWDDSLNGRVFGGGTKLTVLSSASTKGPSVFPLAPSSKSTSGGTAALGCLVKDYFPEPVTVSWNSGALTSGVHTFPAVLQSSGLYSLSSVVTVPSSSLGTQTYICNVNHKPSNTKVDKKVEPKSC heavy 2: not shown light 2: not shown
